Reference: the supplement of paper PMC7877785
± gives the uncertainty stated by the source.

Assay: self-splicing fitness, log relative to wild type (ln ratio); higher = more splicing; Tetrahymena group I intron in knt gene, E. coli kanamycin selection, DiMSum; sequences stand for … in CUCUCU…GGAGGGAAAAGUUAUCAGGCAUGCACCUGGUAGCUAGUCUUUAAACCAAUAGAUUGCAUCGGUUUAAAAGGCAAGACCGUCAAAUUGCGGGAAAGGGGUCAACAGCCGUUCAGUACCAAGUCUCAGGGGAAACUUUGAGAUGGCCUUGCAAAGGGUAUGGUAAUAAGCUGACGGACAUGGUCCUAACCACGCAGCCAAGUCCUAAGUCAACAGAUCUUCUGUUGAUAUGGAUGCAGUUCACAGACUAAAUGUCGGUCGGGGAAGAUGUAUUCUUCUCAUAAGAUAUAGUCGGACCUCUCCUUAAUGGGAGCUAGCGGAUGAAGUGAUGCAACACUGGAGCCGCUGGGAACUAAUUUGUAUGCGAAAGUAUAUUGAUUAGUUUUGGAGUACUCGUGGUCG
In short: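 The eight P1ex-region nucleotides of an intron in the knt kanamycin-resistance gene on pET-22b(+) were all randomised and the library put into E. coli BL21(DE3). Six replicate transformations were grown overnight at 37°C or 30°C on LB agar with or without 25 μg/mL kanamycin, together with 100 μg/mL carbenicillin, 50 μM IPTG and 0.2% rhamnose. Colonies were pooled and amplicon-sequenced on an Illumina HiSeq 2500. Fitness from DiMSum is the error-weighted combination of wild-type-normalised replicate fold changes, kanamycin over none.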

| Sequence | self-splicing fitness (ln) (37 °C) | self-splicing fitness (ln) (30 °C) |
| --- | --- | --- |
| CGCAAGCAAUAUUACGACUU | -2.07 ± 0.25 | – |
| CGCAAGCAAUAUUACGAUCC | -1.36 ± 0.19 | -1.71 ± 0.12 |
| CGCAAGCAAUAUUACGAUCG | -0.342 ± 0.14 | -1.19 ± 0.1 |
| CGCAAGCAAUAUUACGCAUU | -3.12 ± 0.21 | -4.11 ± 0.19 |
| CGCAAGCAAUAUUACGCCUG | -2.52 ± 0.23 | -1.96 ± 0.13 |
| CGCAAGCAAUAUUACGCGGA | -2.41 ± 0.23 | -2.93 ± 0.28 |
| CGCAAGCAAUAUUACGCUCC | -1.11 ± 0.38 | -2.06 ± 0.27 |
| CGCAAGCAAUAUUACGGAAC | -2.87 ± 0.32 | -3.07 ± 0.21 |
| CGCAAGCAAUAUUACGGAGA | -2.54 ± 0.19 | -3.09 ± 0.18 |
| CGCAAGCAAUAUUACGGAUU | -1.5 ± 0.19 | -4.84 ± 0.34 |
| CGCAAGCAAUAUUACGGCGA | -0.653 ± 0.17 | -1.91 ± 0.24 |
| CGCAAGCAAUAUUACGGCUU | -2.28 ± 0.2 | -2.5 ± 0.14 |
| CGCAAGCAAUAUUACGGGCG | -2.76 ± 0.2 | -4.43 ± 0.19 |
| CGCAAGCAAUAUUACGGGGU | -1.33 ± 0.12 | -4.04 ± 0.18 |
| CGCAAGCAAUAUUACGUAUU | -3.5 ± 0.35 | -3.08 ± 0.21 |
| CGCAAGCAAUAUUACGUCAU | -2.4 ± 0.17 | -4.26 ± 0.24 |
| CGCAAGCAAUAUUACGUCCG | 0.53 ± 0.2 | -0.62 ± 0.12 |
| CGCAAGCAAUAUUACGUCUC | -1.49 ± 0.15 | -3.36 ± 0.18 |
| CGCAAGCAAUAUUACGUCUU | -3.12 ± 0.22 | -4.05 ± 0.26 |
| CGCAAGCAAUAUUACGUGGA | -1.6 ± 0.095 | -3.37 ± 0.16 |
| CGCAAGCAAUAUUACGUGUG | -2.56 ± 0.11 | -4.31 ± 0.14 |
| CGCAAGCAAUAUUACGUUGA | -2.02 ± 0.15 | -2.6 ± 0.13 |
| CGCCAGCAAUAUUACGAACG | 0.0565 ± 0.12 | -0.982 ± 0.097 |
| CGCCAGCAAUAUUACGACAC | -1.65 ± 0.26 | -2.92 ± 0.25 |

| Sequence | self-splicing fitness (ln) (37 °C) | self-splicing fitness (ln) (30 °C) |
| --- | --- | --- |
| CGCCAGCAAUAUUACGACCG | -0.103 ± 0.12 | -0.693 ± 0.083 |
| CGCCAGCAAUAUUACGAGAA | -2.75 ± 0.38 | -2.14 ± 0.42 |
| CGCCAGCAAUAUUACGAGUG | -1.59 ± 0.11 | -2.41 ± 0.07 |
| CGCCAGCAAUAUUACGAUAC | -3.13 ± 0.24 | -3.42 ± 0.22 |
| CGCCAGCAAUAUUACGAUAU | -2.14 ± 0.2 | -3.92 ± 0.22 |
| CGCCAGCAAUAUUACGCCGC | -1.39 ± 0.39 | -2.72 ± 0.21 |
| CGCCAGCAAUAUUACGCUAG | -2.4 ± 0.23 | -2.94 ± 0.16 |
| CGCCAGCAAUAUUACGGACG | -2.95 ± 0.28 | -4.63 ± 0.31 |
| CGCCAGCAAUAUUACGGAUC | -1.38 ± 0.47 | -1.24 ± 0.22 |
| CGCCAGCAAUAUUACGGCUA | -0.172 ± 0.068 | -0.576 ± 0.061 |
| CGCCAGCAAUAUUACGGGCC | -1.72 ± 0.2 | -3.13 ± 0.21 |
| CGCCAGCAAUAUUACGGGGC | -2.55 ± 0.16 | -4 ± 0.19 |
| CGCCAGCAAUAUUACGGUCC | -0.161 ± 0.16 | -0.387 ± 0.13 |
| CGCCAGCAAUAUUACGGUGU | -2.84 ± 0.26 | -2.27 ± 0.12 |
| CGCCAGCAAUAUUACGUACG | -0.916 ± 0.12 | -1.6 ± 0.098 |
| CGCCAGCAAUAUUACGUAGG | -1.32 ± 0.1 | -2.47 ± 0.085 |
| CGCCAGCAAUAUUACGUCAC | -2 ± 0.24 | -3.7 ± 0.24 |
| CGCCAGCAAUAUUACGUCCA | -1.45 ± 0.39 | – |
| CGCCAGCAAUAUUACGUGAU | -2.27 ± 0.11 | -3.42 ± 0.088 |
| CGCCAGCAAUAUUACGUUUG | -0.629 ± 0.072 | -1.17 ± 0.049 |
| CGCGAGCAAUAUUACGAACU | -0.234 ± 0.23 | -1.75 ± 0.18 |
| CGCGAGCAAUAUUACGACAA | -2.28 ± 0.33 | -2.72 ± 0.34 |
| CGCGAGCAAUAUUACGACAU | -2.77 ± 0.043 | -3.853 ± 0.03 |
| CGCGAGCAAUAUUACGACGG | -0.452 ± 0.11 | -0.512 ± 0.1 |
